Test results from the supplement of paper PMC9876800.

System: peptide library, one residue held at a place counted from the S/T acceptor
Experiment: relative phosphorylation of the sub-library (ratio to the mean residue at this position); higher = residue favoured
Procedure, shortened: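 Relative sub-library phosphorylation is a ratio to the mean residue at the same position. Purified recombinant kinases were incubated under kinase-specific conditions with biotinylated degenerate peptide sub-libraries, each fixing one residue at one position around a central Ser/Thr, using 50 μM peptide and 50 μM ATP spiked with γ-32P-ATP for 90 min. Spots captured on streptavidin membranes were phosphorimaged and quantified by densitometry.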

PDK1, construct: Full length, human, sequence (Q15118 whole entry, looked up): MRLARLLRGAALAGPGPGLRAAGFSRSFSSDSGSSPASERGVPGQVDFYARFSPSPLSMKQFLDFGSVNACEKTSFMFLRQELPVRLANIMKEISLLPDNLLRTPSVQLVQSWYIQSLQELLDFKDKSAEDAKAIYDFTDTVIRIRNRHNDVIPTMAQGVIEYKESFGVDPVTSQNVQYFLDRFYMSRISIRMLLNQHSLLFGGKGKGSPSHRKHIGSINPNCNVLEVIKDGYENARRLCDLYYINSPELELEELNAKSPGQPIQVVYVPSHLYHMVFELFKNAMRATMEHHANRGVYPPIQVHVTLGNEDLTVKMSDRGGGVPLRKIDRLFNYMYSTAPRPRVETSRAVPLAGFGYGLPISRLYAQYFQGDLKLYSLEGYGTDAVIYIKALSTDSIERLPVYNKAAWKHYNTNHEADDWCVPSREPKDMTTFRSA
MAP2K5, construct: Full length, human, sequence (Q13163 whole entry, looked up): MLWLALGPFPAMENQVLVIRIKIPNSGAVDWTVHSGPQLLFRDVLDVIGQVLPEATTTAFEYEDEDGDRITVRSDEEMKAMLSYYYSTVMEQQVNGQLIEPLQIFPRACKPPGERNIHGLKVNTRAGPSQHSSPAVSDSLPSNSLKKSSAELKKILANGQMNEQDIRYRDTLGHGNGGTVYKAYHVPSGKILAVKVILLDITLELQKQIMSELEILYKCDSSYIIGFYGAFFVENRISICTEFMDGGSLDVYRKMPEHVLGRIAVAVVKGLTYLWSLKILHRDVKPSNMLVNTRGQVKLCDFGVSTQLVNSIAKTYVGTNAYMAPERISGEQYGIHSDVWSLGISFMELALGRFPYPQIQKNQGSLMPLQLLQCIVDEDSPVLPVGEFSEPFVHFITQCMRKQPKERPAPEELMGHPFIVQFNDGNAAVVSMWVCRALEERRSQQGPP
HUNK, construct: Full length, human, sequence (P57058 whole entry, looked up): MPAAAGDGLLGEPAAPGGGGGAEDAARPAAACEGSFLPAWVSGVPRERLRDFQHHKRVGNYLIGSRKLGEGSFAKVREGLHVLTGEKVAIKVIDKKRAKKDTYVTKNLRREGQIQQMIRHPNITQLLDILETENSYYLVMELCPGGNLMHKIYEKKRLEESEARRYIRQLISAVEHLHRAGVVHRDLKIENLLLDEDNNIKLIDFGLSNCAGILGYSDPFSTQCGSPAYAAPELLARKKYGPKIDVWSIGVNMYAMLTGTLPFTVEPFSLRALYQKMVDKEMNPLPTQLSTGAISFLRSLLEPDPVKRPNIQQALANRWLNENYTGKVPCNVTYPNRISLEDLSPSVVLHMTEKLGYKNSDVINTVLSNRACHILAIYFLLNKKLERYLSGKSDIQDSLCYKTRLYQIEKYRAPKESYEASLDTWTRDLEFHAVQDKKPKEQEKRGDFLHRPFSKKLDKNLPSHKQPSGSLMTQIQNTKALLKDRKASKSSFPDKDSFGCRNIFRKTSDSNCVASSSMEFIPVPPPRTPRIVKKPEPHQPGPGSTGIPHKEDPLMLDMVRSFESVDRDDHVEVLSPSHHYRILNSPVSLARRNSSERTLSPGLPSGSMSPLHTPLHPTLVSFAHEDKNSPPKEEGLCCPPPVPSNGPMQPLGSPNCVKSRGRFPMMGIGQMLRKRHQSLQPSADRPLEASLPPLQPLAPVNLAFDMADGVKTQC

MAP2K5, construct: Full length, human (from UniProt Q13163)
relative phosphorylation
Conditions | at +1 | at +2 | at +3 | at +4 | at -1 | at -2 | at -3 | at -4 | at -5
A fixed | 0.719 | 0.806 | 0.742 | 0.876 | 0.985 | 1.01 | 1.02 | 0.982 | 0.924
D fixed | 0.453 | 0.477 | 0.592 | 0.598 | 0.918 | 0.931 | 0.998 | 0.992 | 0.898
E fixed | 0.47 | 0.454 | 0.583 | 0.62 | 0.73 | 0.732 | 0.889 | 0.982 | 0.828
F fixed | 1.12 | 0.912 | 1.29 | 0.97 | 0.899 | 1.75 | 0.962 | 1.08 | 1.2
G fixed | 0.703 | 0.748 | 0.949 | 0.998 | 1.19 | 0.942 | 1.16 | 1.08 | 0.963
H fixed | 0.886 | 2.3 | 1.1 | 1.07 | 1.15 | 1.01 | 1.02 | 1.09 | 1.17
I fixed | 1.52 | 0.717 | 0.919 | 0.898 | 0.706 | 0.696 | 0.744 | 0.74 | 0.856
K fixed | 0.872 | 1.29 | 1.14 | 1.49 | 1.14 | 0.83 | 1.08 | 1.11 | 1.09
L fixed | 1.2 | 0.711 | 1.01 | 0.836 | 1.07 | 0.841 | 0.846 | 0.783 | 0.884
M fixed | 1.62 | 0.928 | 1.06 | 0.956 | 1.11 | 0.866 | 0.943 | 0.944 | 0.889
N fixed | 0.836 | 0.935 | 0.963 | 0.891 | 1.08 | 0.855 | 0.906 | 0.947 | 0.894
P fixed | 0.636 | 0.604 | 0.714 | 1.06 | 0.809 | 0.901 | 1.07 | 0.902 | 0.894
Q fixed | 0.839 | 0.918 | 0.854 | 1.09 | 0.969 | 0.841 | 0.817 | 0.834 | 0.828
R fixed | 1.1 | 1.53 | 1.36 | 1.43 | 1.5 | 1.23 | 1.54 | 1.24 | 1.19
V fixed | 1.2 | 0.736 | 0.781 | 0.774 | 0.711 | 0.771 | 0.684 | 0.791 | 0.843
W fixed | 1.7 | 1.36 | 1.64 | 1.24 | 0.875 | 1.37 | 1.18 | 1.38 | 1.34
Y fixed | 1.14 | 1.57 | 1.3 | 1.21 | 1.17 | 1.43 | 1.14 | 1.12 | 1.32
pThr fixed | 0.902 | 0.728 | 0.733 | 0.792 | 0.844 | 1.07 | 1.34 | 1.17 | 1.29
pTyr fixed | 0.576 | 0.485 | 0.723 | 0.57 | 0.974 | 1.3 | 1.08 | 0.835 | 1.08

PDK1, construct: Full length, human (from UniProt Q15118)
relative phosphorylation
Conditions | at +1 | at +2 | at +3 | at +4 | at -1 | at -2 | at -3 | at -4 | at -5
A fixed | 0.64 | 0.794 | 0.777 | 0.904 | 1.25 | 0.94 | 0.972 | 0.989 | 0.951
D fixed | 0.63 | 1.03 | 1.5 | 1.01 | 1.58 | 0.752 | 0.799 | 0.88 | 0.943
E fixed | 0.568 | 0.888 | 1.1 | 0.856 | 0.681 | 0.7 | 0.677 | 0.818 | 0.881
F fixed | 1.18 | 1.15 | 1.64 | 1.17 | 1.04 | 1.26 | 1.28 | 1.18 | 1.24
G fixed | 0.641 | 1.71 | 1.08 | 1.05 | 1.11 | 1.42 | 0.928 | 1.14 | 1.12
H fixed | 0.804 | 1.09 | 0.87 | 1.06 | 1.25 | 1.26 | 1.08 | 0.957 | 1.1
I fixed | 2.06 | 0.767 | 0.932 | 1 | 0.793 | 0.852 | 1.1 | 0.962 | 0.945
K fixed | 0.624 | 0.808 | 0.622 | 0.794 | 0.655 | 0.704 | 0.77 | 0.832 | 0.824
L fixed | 2.3 | 0.889 | 0.883 | 0.884 | 0.924 | 1.02 | 1.07 | 0.982 | 1.05
M fixed | 1.34 | 0.989 | 1.02 | 1 | 0.976 | 1.08 | 1.12 | 1.19 | 1.1
N fixed | 0.625 | 0.935 | 0.809 | 1.02 | 1.29 | 0.787 | 0.867 | 0.878 | 0.981
P fixed | 0.607 | 0.902 | 1.1 | 1.08 | 0.864 | 0.799 | 0.912 | 1.02 | 0.722
Q fixed | 0.727 | 1.04 | 0.803 | 0.884 | 0.801 | 0.869 | 0.852 | 0.883 | 0.679
R fixed | 0.728 | 1.11 | 0.897 | 0.967 | 0.751 | 0.986 | 0.851 | 0.988 | 0.95
V fixed | 1.28 | 0.813 | 0.948 | 0.926 | 0.823 | 0.83 | 0.94 | 0.831 | 0.917
W fixed | 1.25 | 1.08 | 1.03 | 1.38 | 1.21 | 1.73 | 1.78 | 1.47 | 1.6
Y fixed | 1.18 | 1.15 | 1.64 | 1.17 | 1.04 | 1.26 | 1.28 | 1.18 | 1.24
pThr fixed | 0.538 | 0.662 | 0.863 | 0.876 | 0.572 | 0.524 | 0.666 | 0.846 | 0.933
pTyr fixed | 0.723 | 0.951 | 0.689 | 0.919 | 0.694 | 0.892 | 0.885 | 1.2 | 1.05

HUNK, construct: Full length, human (from UniProt P57058)
relative phosphorylation
Conditions | at +1 | at +2 | at +3 | at +4 | at -1 | at -2 | at -3 | at -4 | at -5
A fixed | 1.03 | 1.5 | 0.679 | 0.686 | 1.56 | 1.41 | 1.16 | 1.13 | 1.27
D fixed | 0.435 | 0.428 | 2.19 | 1.05 | 0.948 | 0.95 | 0.524 | 0.889 | 0.9
E fixed | 0.527 | 0.447 | 1.01 | 0.957 | 1.04 | 0.921 | 0.728 | 1.19 | 0.832
F fixed | 1.58 | 0.842 | 1.37 | 1.85 | 0.461 | 0.831 | 0.927 | 0.798 | 0.759
G fixed | 0.784 | 0.624 | 0.66 | 0.751 | 1.03 | 0.896 | 1.07 | 1.15 | 1.37
H fixed | 0.814 | 1.65 | 1.04 | 0.811 | 0.795 | 1.05 | 1.97 | 0.947 | 1.09
I fixed | 0.538 | 1.44 | 0.61 | 1.72 | 0.555 | 1 | 0.798 | 0.942 | 0.953
K fixed | 0.713 | 0.591 | 0.493 | 0.609 | 1.38 | 0.725 | 0.726 | 1.02 | 1.23
L fixed | 0.882 | 0.747 | 0.704 | 1.39 | 0.571 | 0.867 | 1.19 | 1.39 | 0.947
M fixed | 1.81 | 0.549 | 0.945 | 1.71 | 1.01 | 0.946 | 1.3 | 1.04 | 0.811
N fixed | 0.794 | 0.829 | 1.85 | 0.873 | 1.11 | 1.28 | 0.675 | 0.993 | 1.03
P fixed | 0.301 | 0.355 | 0.287 | 0.64 | 1.06 | 0.395 | 0.961 | 0.786 | 0.917
Q fixed | 1.73 | 0.582 | 0.661 | 0.712 | 1.17 | 1.3 | 0.749 | 0.797 | 0.725
R fixed | 1.01 | 0.814 | 0.766 | 0.758 | 2.41 | 1.44 | 1.35 | 0.963 | 1.3
V fixed | 0.701 | 2.16 | 0.599 | 0.735 | 0.576 | 1.25 | 0.559 | 0.833 | 0.842
W fixed | 1.49 | 1.7 | 2.1 | 0.853 | 0.626 | 0.916 | 0.991 | 1.15 | 0.943
Y fixed | 1.87 | 1.74 | 1.03 | 0.903 | 0.694 | 0.806 | 1.32 | 0.987 | 1.08
pThr fixed | 1.16 | 1.58 | 0.532 | 0.85 | 0.689 | 1.65 | 0.827 | 0.821 | 0.727
pTyr fixed | 0.97 | 1.71 | 0.92 | 0.972 | 0.873 | 0.669 | 0.897 | 0.783 | 0.806

CDK2, construct: Full length, human (from UniProt P24941)
relative phosphorylation
Conditions | at +1 | at +2 | at +3 | at +4 | at -1 | at -2 | at -3 | at -4 | at -5
A fixed | 0.422 | 0.748 | 0.457 | 0.579 | 0.947 | 0.875 | 1.06 | 1.02 | 1.03
D fixed | 0.304 | 0.611 | 0.279 | 0.735 | 1.08 | 0.754 | 0.692 | 1.01 | 1.09
E fixed | 0.304 | 0.544 | 0.265 | 0.591 | 0.846 | 0.701 | 0.887 | 1.08 | 0.998
F fixed | 0.365 | 0.976 | 0.438 | 0.837 | 1.1 | 1.29 | 0.928 | 1.08 | 1.01
G fixed | 0.923 | 0.664 | 0.497 | 1.13 | 1.39 | 0.891 | 1.6 | 1.03 | 0.824
H fixed | 0.367 | 1.28 | 0.871 | 1.04 | 0.879 | 1.21 | 1.3 | 1.21 | 1.17
I fixed | 0.409 | 0.781 | 0.325 | 0.92 | 0.428 | 0.804 | 0.877 | 0.911 | 0.684
K fixed | 0.439 | 1.91 | 8.59 | 1.62 | 1.01 | 0.798 | 0.839 | 1.02 | 1.17
L fixed | 0.384 | 0.947 | 0.358 | 1.12 | 1.02 | 1.27 | 0.88 | 0.911 | 0.787
M fixed | 0.407 | 1.09 | 0.405 | 1.3 | 1.02 | 1.27 | 0.895 | 0.814 | 0.8
N fixed | 0.402 | 1.08 | 0.524 | 1.06 | 1.01 | 0.963 | 0.91 | 0.888 | 0.813
P fixed | 10.1 | 0.384 | 0.626 | 0.731 | 0.7 | 1.3 | 0.804 | 0.589 | 1.1
Q fixed | 0.499 | 1.47 | 0.665 | 1.17 | 1.37 | 1.09 | 1.18 | 1.18 | 1.13
R fixed | 0.494 | 1.94 | 1.49 | 0.939 | 1.3 | 0.684 | 0.88 | 0.829 | 1.06
V fixed | 0.516 | 1.08 | 0.392 | 0.977 | 0.643 | 0.892 | 1.04 | 0.907 | 1
W fixed | 0.326 | 0.667 | 0.429 | 1.32 | 1.34 | 1.19 | 1.2 | 1.4 | 1.13
Y fixed | 0.33 | 0.82 | 0.393 | 0.935 | 0.92 | 1.01 | 1.03 | 1.1 | 1.19
pThr fixed | 1.22 | 0.953 | 1.31 | 0.611 | 0.373 | 0.917 | 1.01 | 0.787 | 0.965
pTyr fixed | 2.21 | 0.603 | 1.1 | 0.825 | 0.766 | 1.63 | 1.13 | 0.938 | 0.898
